From US20090170763A1 (KENJI KANGAWA, published 2009)
Square brackets hold non-standard residues; d marks the D form. Ends that are not written are not given here. * marks the point of attachment. Trt = c1ccc(C(c2ccccc2)(c2ccccc2)*)cc1; Octanoyl = CCCCCCCC(=O)*; Aib = CC(C)(N)C(=O)O; Octyl = CCCCCCCC*

B1: [Cys^3(Octyl),^DPhe^4]-Ghrelin (1-7)-amide (peptide)
peptide: GSC(Octyl)[dF]LSP-NH2
modifications: N-terminus assumed
SMILES: CCCCCCCCSC[C@H](NC(=O)[C@H](CO)NC(=O)CN)C(=O)N[C@H](Cc1ccccc1)C(=O)N[C@@H](CC(C)C)C(=O)N[C@@H](CO)C(=O)N1CCC[C@H]1C(N)=O
B2: [Aib^1,His^2,^DSer^3(Octyl),^DPhe^4,Lys^5]-Ghrelin (1-5)-amide (peptide)
peptide: [Aib]H[dS](Octyl)[dF]K-NH2
modifications: N-terminus assumed
SMILES: CCCCCCCCOC[C@@H](NC(=O)[C@H](Cc1c[nH]cn1)NC(=O)C(C)(C)N)C(=O)N[C@H](Cc1ccccc1)C(=O)N[C@@H](CCCCN)C(N)=O
B3: [N-Glycyl]-Ghrelin (3-7)-amide (peptide)
peptide: GS(Octanoyl)FLSP-NH2
modifications: N-terminus assumed
SMILES: CCCCCCCC(=O)OC[C@H](NC(=O)CN)C(=O)N[C@@H](Cc1ccccc1)C(=O)N[C@@H](CC(C)C)C(=O)N[C@@H](CO)C(=O)N1CCC[C@H]1C(N)=O
B4: [Lys^8]-Ghrelin (1-8)-amide (peptide)
peptide: GSS(Octanoyl)FLSPK-NH2
modifications: N-terminus assumed
SMILES: CCCCCCCC(=O)OC[C@H](NC(=O)[C@H](CO)NC(=O)CN)C(=O)N[C@@H](Cc1ccccc1)C(=O)N[C@@H](CC(C)C)C(=O)N[C@@H](CO)C(=O)N1CCC[C@H]1C(=O)N[C@@H](CCCCN)C(N)=O
B5: [Dap^3(Octanoyl)]-hGhrelin (peptide)
peptide: GSXFLSPEHQRVQQRKESKKPPAKLQPR
modifications: position 3 (X) is L-2,3-diaminopropionic acid (Dap) with N-octanoyl side chain (CH2NHCO-C7H15)
B6: [Cys^3(Octyl)]-Ghrelin (1-7)-amide (peptide)
peptide: GSC(Octyl)FLSP-NH2
modifications: N-terminus assumed
SMILES: CCCCCCCCSC[C@H](NC(=O)[C@H](CO)NC(=O)CN)C(=O)N[C@@H](Cc1ccccc1)C(=O)N[C@@H](CC(C)C)C(=O)N[C@@H](CO)C(=O)N1CCC[C@H]1C(N)=O
B7: [Lys^2]-Ghrelin (1-7)-amide (peptide)
peptide: GKS(Octanoyl)FLSP-NH2
modifications: N-terminus assumed
SMILES: CCCCCCCC(=O)OC[C@H](NC(=O)[C@H](CCCCN)NC(=O)CN)C(=O)N[C@@H](Cc1ccccc1)C(=O)N[C@@H](CC(C)C)C(=O)N[C@@H](CO)C(=O)N1CCC[C@H]1C(N)=O
B8: [Arg^8]-Ghrelin (1-8)-amide (peptide)
peptide: GSS(Octanoyl)FLSPR-NH2
modifications: N-terminus assumed
SMILES: CCCCCCCC(=O)OC[C@H](NC(=O)[C@H](CO)NC(=O)CN)C(=O)N[C@@H](Cc1ccccc1)C(=O)N[C@@H](CC(C)C)C(=O)N[C@@H](CO)C(=O)N1CCC[C@H]1C(=O)N[C@@H](CCCNC(=N)N)C(N)=O
B9: [His^2]-Ghrelin (1-7)-amide (peptide)
peptide: GHS(Octanoyl)FLSP-NH2
modifications: N-terminus assumed
SMILES: CCCCCCCC(=O)OC[C@H](NC(=O)[C@H](Cc1c[nH]cn1)NC(=O)CN)C(=O)N[C@@H](Cc1ccccc1)C(=O)N[C@@H](CC(C)C)C(=O)N[C@@H](CO)C(=O)N1CCC[C@H]1C(N)=O
B10: [Gly^2]-Ghrelin (1-7)-amide (peptide)
peptide: GGS(Octanoyl)FLSP-NH2
modifications: N-terminus assumed
SMILES: CCCCCCCC(=O)OC[C@H](NC(=O)CNC(=O)CN)C(=O)N[C@@H](Cc1ccccc1)C(=O)N[C@@H](CC(C)C)C(=O)N[C@@H](CO)C(=O)N1CCC[C@H]1C(N)=O
B11: [Lys^5]-Ghrelin (1-5)-amide (peptide)
peptide: GSS(Octanoyl)FK-NH2
modifications: N-terminus assumed
SMILES: CCCCCCCC(=O)OC[C@H](NC(=O)[C@H](CO)NC(=O)CN)C(=O)N[C@@H](Cc1ccccc1)C(=O)N[C@@H](CCCCN)C(N)=O
B12: [Lys^6]-Ghrelin (1-6)-amide (peptide)
peptide: GSS(Octanoyl)FLK-NH2
modifications: N-terminus assumed
SMILES: CCCCCCCC(=O)OC[C@H](NC(=O)[C@H](CO)NC(=O)CN)C(=O)N[C@@H](Cc1ccccc1)C(=O)N[C@@H](CC(C)C)C(=O)N[C@@H](CCCCN)C(N)=O
B13: [Lys^7]-Ghrelin (1-7)-amide (peptide)
peptide: GSS(Octanoyl)FLSK-NH2
modifications: N-terminus assumed
SMILES: CCCCCCCC(=O)OC[C@H](NC(=O)[C@H](CO)NC(=O)CN)C(=O)N[C@@H](Cc1ccccc1)C(=O)N[C@@H](CC(C)C)C(=O)N[C@@H](CO)C(=O)N[C@@H](CCCCN)C(N)=O
B14: [Aib^1,His^2,Ser^3(Octyl),Lys^5]-Ghrelin (1-5)-amide (peptide)
peptide: [Aib]HS(Octyl)FK-NH2
modifications: N-terminus assumed
SMILES: CCCCCCCCOC[C@H](NC(=O)[C@H](Cc1c[nH]cn1)NC(=O)C(C)(C)N)C(=O)N[C@@H](Cc1ccccc1)C(=O)N[C@@H](CCCCN)C(N)=O
B15: [^DPhe^4,Lys^5]-Ghrelin (1-5)-amide (peptide)
peptide: GSS(Octanoyl)[dF]K-NH2
modifications: N-terminus assumed
SMILES: CCCCCCCC(=O)OC[C@H](NC(=O)[C@H](CO)NC(=O)CN)C(=O)N[C@H](Cc1ccccc1)C(=O)N[C@@H](CCCCN)C(N)=O
B16: Ghrelin (1-7)-amide (peptide)
peptide: GSS(Octanoyl)FLSP-NH2
modifications: N-terminus assumed
SMILES: CCCCCCCC(=O)OC[C@H](NC(=O)[C@H](CO)NC(=O)CN)C(=O)N[C@@H](Cc1ccccc1)C(=O)N[C@@H](CC(C)C)C(=O)N[C@@H](CO)C(=O)N1CCC[C@H]1C(N)=O
B17: Ghrelin (1-6)-amide (peptide)
peptide: GSS(Octanoyl)FLS-NH2
modifications: N-terminus assumed
SMILES: CCCCCCCC(=O)OC[C@H](NC(=O)[C@H](CO)NC(=O)CN)C(=O)N[C@@H](Cc1ccccc1)C(=O)N[C@@H](CC(C)C)C(=O)N[C@@H](CO)C(N)=O
B18: Ghrelin (1-5)-amide (peptide)
peptide: GSS(Octanoyl)FL-NH2
modifications: N-terminus assumed
SMILES: CCCCCCCC(=O)OC[C@H](NC(=O)[C@H](CO)NC(=O)CN)C(=O)N[C@@H](Cc1ccccc1)C(=O)N[C@@H](CC(C)C)C(N)=O
B19: Ghrelin (1-4)-amide (peptide)
peptide: GSS(Octanoyl)F-NH2
modifications: N-terminus assumed
SMILES: CCCCCCCC(=O)OC[C@H](NC(=O)[C@H](CO)NC(=O)CN)C(=O)N[C@@H](Cc1ccccc1)C(N)=O
B20: Ghrelin (1-8)-amide (peptide)
peptide: GSS(Octanoyl)FLSPE-NH2
modifications: N-terminus assumed
SMILES: CCCCCCCC(=O)OC[C@H](NC(=O)[C@H](CO)NC(=O)CN)C(=O)N[C@@H](Cc1ccccc1)C(=O)N[C@@H](CC(C)C)C(=O)N[C@@H](CO)C(=O)N1CCC[C@H]1C(=O)N[C@@H](CCC(=O)O)C(N)=O

These binders were tested against rat GHS-R (GHS receptor) expressed on CHO-GHSR62 cells (rat) (UniProt O08725) (assay: cell-based or functional assay).
rat GHS-R (GHS receptor) expressed on CHO-GHSR62 cells (rat), sequence (O08725 whole entry): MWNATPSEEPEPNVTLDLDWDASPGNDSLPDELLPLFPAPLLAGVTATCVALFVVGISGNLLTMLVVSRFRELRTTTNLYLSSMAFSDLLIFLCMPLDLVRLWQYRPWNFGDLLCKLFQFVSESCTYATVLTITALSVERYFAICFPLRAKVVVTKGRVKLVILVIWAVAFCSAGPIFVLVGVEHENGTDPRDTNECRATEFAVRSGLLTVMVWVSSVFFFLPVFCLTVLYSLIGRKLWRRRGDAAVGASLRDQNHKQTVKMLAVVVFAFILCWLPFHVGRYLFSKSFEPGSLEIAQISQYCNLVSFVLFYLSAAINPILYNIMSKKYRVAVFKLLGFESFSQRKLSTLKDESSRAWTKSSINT
GSXFLSPEHQRVQQRKESKKPPAKLQPR (position 3 (X) is 2-D-naphthylalanine (D-Nal)) [[2-^DNal^3]-hGhrelin] showed an Activity EC50 of over 10000 nM. In the case of B1, the Ca-releasing activity EC50 is reported as 3000 nM. Work on GSC(Octyl)FLSPEHQKAQQRKESKKPPAKLQPR [[Cys^3(Octyl)]-rGhrelin] yielded a Ca-releasing activity EC50 of 5.4 nM and an EC50 value of 5.4 nM. Work on B2 yielded an Activity EC50 of 38 nM. In the case of B3, the Ca-releasing activity EC50 is reported as 380 nM. B4 showed a Ca-releasing activity EC50 of 1.1 nM. GSDFLSPEHQRVQQRKESKKPPAKLQPR (Asp 3 side-chain heptylamide (NH-C7H15)) [[Asp^3(NH-Heptyl)]-hGhrelin] showed an Activity EC50 of 11 nM. In the case of YGSS(Octanoyl)FLSPEHQKAQQRKESKKPPAKLQPR [[N-Tyr]-rGhrelin], the Ca-releasing activity EC50 is reported as 120 nM. B5 showed an Activity EC50 of 2.6 nM. Work on B6 yielded a Ca-releasing activity EC50 of 7.4 nM. In the case of B7, the Ca-releasing activity EC50 is reported as 24 nM. GSC(S‑heptyl)FLSPEHQRVQQRKESKKPPAKLQPR [[Cys^3(S-Heptyl)]-hGhrelin] gave an Activity EC50 of 1.4 nM. With GSXFLSPEHQRVQQRKESKKPPAKLQPR (position 3 (X) is 2-L-naphthylalanine (Nal)) [[2-^LNal^3]-hGhrelin] the Activity EC50 was 8.2 nM and the EC50 value was 8.2 nM. B8 was tested, and the Ca-releasing activity EC50 was 1.1 nM. In the case of B9, the Ca-releasing activity EC50 is reported as 35 nM. B10 gave a Ca-releasing activity EC50 of 78 nM. In the case of GSXFLSPEHQRVQQRKESKKPPAKLQPR (position 3 (X) is cyclohexylalanine (Cha)) [[Cha^3]-hGhrelin], the Activity EC50 is reported as 19 nM. In the case of B11, the Ca-releasing activity EC50 is reported as 10 nM. For GST(Octanoyl)FLSPEHQRVQQRKESKKPPAKLQPR [[Thr^3(Octanoyl)]-hGhrelin], the Activity EC50 was 10 nM. For GSXFLSPEHQRVQQRKESKKPPAKLQPR (position 3 (X) is 2-aminododecanoic acid (Adod; side chain n-C10H21)) [[Adod^3]-hGhrelin], the Activity EC50 was 0.91 nM. B12 gave a Ca-releasing activity EC50 of 12 nM. With GSXFLSPEHQRVQQRKESKKPPAKLQPR (position 3 (X) is norleucine (Nle)) [[Nle^3]-hGhrelin] the Activity EC50 was 2800 nM. Work on GSDFLSPEHQRVQQRKESKKPPAKLQPR (Asp 3 side-chain heptyl ester (O-C7H15)) [[Asp^3(O-Heptyl)]-hGhrelin] yielded an Activity EC50 of 5.1 nM. B13 was tested, and the Activity EC50 was 11 nM. B14 showed an Activity EC50 of 34 nM. With B15 the Ca-releasing activity EC50 was 1700 nM. Work on GSC(Trt)FLSPEHQRVQQRKESKKPPAKLQPR [[Cys^3(Trityl)]-hGhrelin] yielded an Activity EC50 of 20 nM.

These binders were tested against T1, rat GHS-R (GHS receptor) expressed on CHO-GHSR62 cells (rat, UniProt O08725 1-364) (assay: cell-based or functional assay).
T1 sequence (O08725 whole entry): as the sequence (O08725 whole entry) above
With GSS(Octanoyl)FLSPEHQR [hGhrelin (1-11)] the “Ca-releasing activity (EC50, nM)” value was 15 nM. With GSS(Octanoyl)FLSPEHQK [rGhrelin (1-11)] the “Ca-releasing activity (EC50, nM)” value was 15 nM.

Target: T1, rat GHS-R (GHS receptor) expressed on …
Test: cell-based or functional assay
Remark: another data set of the same source
With GSS(Octanoyl)FLSPEHQR [hGhrelin (1-11)] the “Ca-releasing activity EC50” value was 15 nM. In the case of GSS(Octanoyl)FLSPEHQK [rGhrelin (1-11)], the “Ca-releasing activity EC50” value is reported as 15 nM. For B16, the “Ca-releasing activity EC50” value was 2.6 nM. For B17, the “Ca-releasing activity EC50” value was 4.8 nM. For B18, the “Ca-releasing activity EC50” value was 6.2 nM. For B19, the “Ca-releasing activity EC50” value was 160 nM. For Gly-Ser-Ser(Octanoyl)-NH2 (N-terminus assumed; SMILES CCCCCCCC(=O)OC[C@H](NC(=O)[C@H](CO)NC(=O)CN)C(N)=O) [Ghrelin (1-3)-amide], the “Ca-releasing activity EC50” value was over 10000 nM. For GSS(Octanoyl)FL [Ghrelin (1-5)], the “Ca-releasing activity EC50” value was 68 nM. For B20, the “Ca-releasing activity EC50” value was 13 nM.
